Results as given in article PMC12884772, “Macrophagic Sclerostin Loop2‐ApoER2 Interaction Required by Sclerostin for Cardiovascular Protective Action” (Advanced Science, 2025).

Target: T1, ApoER2 (Mus musculus, UniProt Q924X6)
T1 construct: FLAG; expressed in transfected cells; host or cells: RAW264.7
T1 sequence (Q924X6 29-996): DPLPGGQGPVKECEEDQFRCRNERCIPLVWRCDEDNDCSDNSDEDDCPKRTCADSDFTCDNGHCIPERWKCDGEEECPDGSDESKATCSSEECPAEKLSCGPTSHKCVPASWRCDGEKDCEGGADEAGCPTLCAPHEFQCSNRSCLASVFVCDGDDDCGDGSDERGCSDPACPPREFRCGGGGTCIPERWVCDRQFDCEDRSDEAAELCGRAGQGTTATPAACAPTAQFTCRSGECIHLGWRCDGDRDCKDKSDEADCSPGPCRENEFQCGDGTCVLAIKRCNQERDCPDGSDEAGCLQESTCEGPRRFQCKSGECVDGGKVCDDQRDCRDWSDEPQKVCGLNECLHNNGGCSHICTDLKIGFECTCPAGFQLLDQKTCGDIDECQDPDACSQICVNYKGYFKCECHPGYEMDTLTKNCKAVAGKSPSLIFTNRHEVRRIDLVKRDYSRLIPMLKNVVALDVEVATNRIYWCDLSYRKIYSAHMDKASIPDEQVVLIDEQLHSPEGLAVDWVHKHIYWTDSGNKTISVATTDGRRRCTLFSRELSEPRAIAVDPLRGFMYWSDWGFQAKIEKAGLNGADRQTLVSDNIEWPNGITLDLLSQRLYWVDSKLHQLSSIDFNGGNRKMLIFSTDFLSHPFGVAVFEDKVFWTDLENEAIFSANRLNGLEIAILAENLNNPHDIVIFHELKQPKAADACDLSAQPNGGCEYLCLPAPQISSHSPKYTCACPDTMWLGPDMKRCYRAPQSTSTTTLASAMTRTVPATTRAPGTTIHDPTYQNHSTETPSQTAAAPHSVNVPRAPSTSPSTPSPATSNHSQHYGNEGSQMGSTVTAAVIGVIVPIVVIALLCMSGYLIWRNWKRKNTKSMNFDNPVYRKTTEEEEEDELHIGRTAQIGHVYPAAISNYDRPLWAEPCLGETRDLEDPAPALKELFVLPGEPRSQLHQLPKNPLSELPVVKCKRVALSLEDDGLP
Assay: Pull‐down assay of ApoER2 by His‐tagged full‐length/truncated/mutated sclerostin in macrophages (RAW264.7)
Type: binding
Conditions: RAW264.7 lysate, Ni‐NTA beads, western blot; Figure 6A, S6A
Experimental: The interaction of full‐length (FL)/truncated ApoER2 with full‐length (FL) /truncated sclerostin in macrophages (RAW264.7) were determined by pull‐down assay and Co‐IP assay. The binding affinity of ApoER2 to FL sclerostin and sclerostin loop2 were determined by biolayer interferometry (BLI) analysis. Moreover, the binding of sclerostin to ApoER2 on macrophages (RAW264.7) was examined by confocal microscopy.
The interaction residues within ApoER2 to sclerostin loop2 were determined in combination with pull‐down assay and BLI analysis. Based on the interaction residues within ApoER2 to sclerostin loop2, a series of Lrp8 mutations were developed. Based on the interaction residues within sclerostin loop2 to ApoER2, a series of sost mutations were developed.
Cell lysates were collected using RIPA Lysis and Extraction Buffer (Thermo Scientific, 89 901) supplemented with Protease Inhibitor Cocktail (CST, 5871) and centrifuged at 4000 rpm for 30 min at 4 °C, and replaced with binding buffer (PBS buffer, 20 mM imidazole, pH 8.0). […]
The eluted liquid from pull‐down assay was then mixed with SDS‐PAGE loading buffer and boiled for 10 min at 95 °C to make samples. […] The ECL solution (BIO‐RAD, 1 705 061) was used to visualize detected proteins. […]

sclerostin: recombinant human/mouse full‐length sclerostin protein
Pull‐down of FLAG‐ApoER2 by the His‐tagged protein/peptide: pulled
